± gives the standard deviation of the averaged measurements.
B1: library; a variant is named by its letters at N, in order (parent)
chain: GCUGUCACCGGUGUAUUACCCUAGUGGUCGACCGGUCUGAUGAGUCUNNNNNNAGACGAAACAGC

Key:
hypoxanthine [1] = variants of: B1; assay: FACS-Seq fitted mean relative fluorescence mCherry/BFP without ligand (log10 relative fluorescence); ligand: hypoxanthine (xanthine aptamer); higher = higher reporter protein expression; settings: HEK293T, ligand present: no
How it was run: (§1)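 After lentiviral transduction, HEK293T library cells bearing an mCherry ribozyme-switch reporter and an EF1α-BFP marker were enriched. They were then held for 48 h with or without ligand and sorted by mCherry/BFP into 6 bins, and each bin's genomic DNA was PCR-amplified, barcoded and MiSeq-sequenced. Fluorescence is expressed as a normalized fitted mean: the normal mean of log10(mCherry/BFP) bin counts, scaled to five spiked-in control ribozymes.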

hypoxanthine [2] = variants of: B1; assay: normalized RNA/DNA level with ligand (relative to sTRSVctl = 100) (log10 (% of sTRSVctl)); ligand: hypoxanthine (xanthine aptamer); higher = less ribozyme self-cleavage, higher mRNA level; settings: ligand concentration (+) RNA-Seq: 5 mM, HEK293T, reporter: mCherry (pCS4076), ligand present: yes
How it was run: (§2)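 RNA level was computed as RNA reads over DNA reads divided by a spiked-in non-cleaving sequence or by the top sequences, then scaled and log-transformed. Scaling was ×100 with log10, the top group was 25 sequences, and the threshold was ≥100 DNA reads. The reads came from HEK293T cells transfected at 4 µg per 6-well well with ribozyme switch library plasmids (mCherry, or eGFP in some ligand experiments). Total RNA was extracted with EDTA 72 h after transfection, with any ligand added 1 h before it.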

hypoxanthine [3] = variants of: B1; assay: normalized RNA/DNA level without ligand (relative to sTRSVctl = 100) (log10 (% of sTRSVctl)); ligand: hypoxanthine (xanthine aptamer); higher = less ribozyme self-cleavage, higher mRNA level; settings: HEK293T, reporter: mCherry (pCS4076), ligand present: no
How it was run: as §2

hypoxanthine [4] = variants of: B1; assay: FACS-Seq fitted mean relative fluorescence mCherry/BFP with ligand (log10 relative fluorescence); ligand: hypoxanthine (xanthine aptamer); ligand concentration (+) FACS-Seq: 5 mM; higher = higher reporter protein expression; settings: HEK293T, ligand present: yes
How it was run: as §1

Variant	FACS-Seq fitted mean (log10) (hypoxanthine [1])	normalized RNA/DNA level with ligand (log10) (hypoxanthine [2])	normalized RNA/DNA level without ligand (log10) (hypoxanthine [3])	FACS-Seq fitted mean (log10) (hypoxanthine [4])
GUGGUA	0.478 ± 0.079	1.95 ± 0.026	1.759 ± 0.016	0.585 ± 0.082
GUGAUG	0.204 ± 0.049	1.81 ± 0.038	1.34 ± 0.019	0.686 ± 0.037
GUCGGA	-0.358 ± 0.082	1.98 ± 0.055	1.79 ± 0.027	-0.116 ± 0.049
GUCGGC	0.485 ± 0.026	1.91 ± 0.025	1.68 ± 0.042	0.81 ± 0.023
GUCGGG	0.355 ± 0.068	1.882 ± 0.0031	1.58 ± 0.12	-0.0447 ± 0.038
GUCAUG	0.242 ± 0.025	1.9 ± 0.027	1.53 ± 0.025	0.491 ± 0.014
AUCGAU	0.371 ± 0.032	1.9 ± 0.025	1.669 ± 0.0035	0.284 ± 0.033
AUCGAG	0.2633 ± 0.00067	1.793 ± 0.014	1.35 ± 0.044	0.4 ± 0.028
AUCGAC	0.449 ± 0.044	1.95 ± 0.063	1.81 ± 0.054	0.415 ± 0.12
AUGCGG	-0.0506 ± 0.036	1.752 ± 0.0084	1.31 ± 0.12	0.504 ± 0.014
AUGCGA	0.0429 ± 0.015	1.89 ± 0.076	1.556 ± 0.0057	0.395 ± 0.06
GUCUAA	0.326 ± 0.054	1.94 ± 0.048	1.801 ± 0.0053	0.458 ± 0.0071
GUCUAG	0.584 ± 0.051	1.87 ± 0.053	1.53 ± 0.044	0.604 ± 0.11
AUGAGG	-0.0108 ± 0.028	1.644 ± 0.0044	1.15 ± 0.056	0.252 ± 0.059
AUGAGA	0.392 ± 0.088	1.85 ± 0.062	1.451 ± 0.0036	0.697 ± 0.0095
AUCCGC	0.3452 ± 0.0029	1.931 ± 0.011	1.8 ± 0.024	0.517 ± 0.049
AUCCGA	0.296 ± 0.067	1.92 ± 0.014	1.758 ± 0.012	0.5594 ± 0.0019
AUCAUU	0.581 ± 0.01	1.96 ± 0.037	1.96 ± 0.029	0.691 ± 0.072

Variant	FACS-Seq fitted mean (log10) (hypoxanthine [1])	normalized RNA/DNA level with ligand (log10) (hypoxanthine [2])	normalized RNA/DNA level without ligand (log10) (hypoxanthine [3])	FACS-Seq fitted mean (log10) (hypoxanthine [4])
AUCAUA	0.467 ± 0.023	1.92 ± 0.035	1.798 ± 0.0029	0.562 ± 0.061
AUGGGA	0.29 ± 0.013	1.89 ± 0.043	1.56 ± 0.08	0.592 ± 0.042
UUCGAA	0.708 ± 0.021	1.938 ± 0.0037	1.7 ± 0.045	0.716 ± 0.059
UUCGAU	0.164 ± 0.024	1.88 ± 0.019	1.767 ± 0.00052	0.303 ± 0.0063
GUCCGG	0.2204 ± 0.002	1.9355 ± 0.0013	1.64 ± 0.081	0.524 ± 0.11
GUCCCG	0.415 ± 0.0031	1.91 ± 0.0099	1.64 ± 0.12	0.511 ± 0.028
GUCCAC	-0.048 ± 0.034	1.94 ± 0.054	1.848 ± 0.0045	0.0349 ± 0.08
GUCCAA	0.669 ± 0.0074	1.89 ± 0.065	1.79 ± 0.035	0.655 ± 0.08
GUCCAG	0.3111 ± 0.00085	1.863 ± 0.015	1.48 ± 0.054	0.723 ± 0.0074
AUGGAA	0.751 ± 0.027	1.88 ± 0.044	1.65 ± 0.043	0.749 ± 0.042
AUGGAC	0.677 ± 0.01	1.8884 ± 0.00037	1.68 ± 0.028	0.843 ± 0.058
AUGGAG	0.0698 ± 0.0056	1.71 ± 0.037	1.208 ± 0.011	0.604 ± 0.023
GUCAGA	-0.213 ± 0.0037	1.897 ± 0.0028	1.74 ± 0.042	-0.0451 ± 0.017
GUCAGC	0.371 ± 0.0086	1.925 ± 0.011	1.79 ± 0.018	0.605 ± 0.059
GUCAGU	0.34 ± 0.024	1.94 ± 0.023	1.833 ± 0.0092	0.492 ± 0.11
GUCAGG	0.326 ± 0.071	1.858 ± 0.016	1.46 ± 0.042	0.67 ± 0.0068
UUCUCG	0.24 ± 0.0079	2.01 ± 0.034	1.854 ± 0.0077	0.362 ± 0.0084
UUCCAC	0.451 ± 0.048	1.97 ± 0.077	1.88 ± 0.027	0.5314 ± 0.0026

— the supplement of paper PMC6757056
